From paper PMC4024747 (Nature Communications, 2014)

Experiments:
[1] = biological target: rPfSUB1cat, recombinant Plasmodium falciparum SUB1 core catalytic domain (38 kDa) (Plasmodium falciparum, UniProt Q8I0V0); assay: western blot; conditions: both partners purified
[2] = biological target: T1, recombinant P. vivax SUB1 (Plasmodium vivax, PVX_097935 (Salvador …, UniProt E6Y8B9)); assay: western blot; conditions: both partners purified
T1 construct: also called PvSUB1
T1 sequence (E6Y8B9 26-630): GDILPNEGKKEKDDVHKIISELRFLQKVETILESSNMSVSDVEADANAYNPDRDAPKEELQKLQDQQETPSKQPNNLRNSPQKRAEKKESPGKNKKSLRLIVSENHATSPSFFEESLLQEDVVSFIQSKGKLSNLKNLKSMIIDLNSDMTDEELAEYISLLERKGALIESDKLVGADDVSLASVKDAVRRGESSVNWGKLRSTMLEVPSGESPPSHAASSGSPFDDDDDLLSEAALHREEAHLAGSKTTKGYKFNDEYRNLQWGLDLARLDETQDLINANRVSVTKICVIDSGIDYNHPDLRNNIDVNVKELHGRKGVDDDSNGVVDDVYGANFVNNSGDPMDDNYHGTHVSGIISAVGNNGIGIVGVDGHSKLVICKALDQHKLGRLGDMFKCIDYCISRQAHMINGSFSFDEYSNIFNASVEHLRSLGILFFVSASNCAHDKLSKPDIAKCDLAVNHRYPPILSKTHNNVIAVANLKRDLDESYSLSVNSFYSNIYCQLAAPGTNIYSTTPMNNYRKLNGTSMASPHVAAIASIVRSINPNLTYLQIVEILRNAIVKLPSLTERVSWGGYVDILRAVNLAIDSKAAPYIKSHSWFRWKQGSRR

rPfSUB1cat, recombinant Plasmodium falciparum SUB1 core catalytic domain (38 kDa), sequence (Q8I0V0 333-668): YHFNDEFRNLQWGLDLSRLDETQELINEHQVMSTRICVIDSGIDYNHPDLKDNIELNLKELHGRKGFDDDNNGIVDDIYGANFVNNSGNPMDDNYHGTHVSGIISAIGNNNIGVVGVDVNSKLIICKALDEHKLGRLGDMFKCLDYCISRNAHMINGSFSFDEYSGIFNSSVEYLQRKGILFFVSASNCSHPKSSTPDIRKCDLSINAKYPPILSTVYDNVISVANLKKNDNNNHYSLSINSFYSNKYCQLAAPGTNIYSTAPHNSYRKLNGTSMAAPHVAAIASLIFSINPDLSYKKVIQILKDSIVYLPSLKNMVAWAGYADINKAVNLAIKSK

B1: mAb NIMP.M7, PfSUB1-specific monoclonal antibody (whole antibody) (antibody, V domains shown)
VH: QVQLQESGPDLVKPSSSLKLTCTTTGYSISSGYSWHWIRQEPGKSLEWMGYIHYSGSTDYNDSLKARITITRDTASNMFFLQLSSVTSDDTAVYYCVIYRYDGQWVFDDWGAGTTVTVSS
VL: DIVLTQSPATMSASLGQRVSMSCSASSSVSTSYFHWYQQKPGSSPKLWIYSTSNLASGVPGRFSGSGSGTSYSLSISSMEAEDAATYYCHQFHRSPLTFGAGTKLELK
binding result [1]: binds | binding result [2]: binds
